Reference: US11643691B2, “Predictive biomarkers for cancer immunotherapy and methods of using same” (Duke University, priority 2018, dated 2023)

Assays:
[1] = tested on: bone-marrow-derived DCs (BMDCs); assay: Extracellular lactate assay (surrogate for glycolysis); type: cell-based, Murine; conditions: BMDC culture media, 0 to 48 hr
Protocol: Lactate measurement: L-Lactate was measured by lactate dehydrogenase conversion of L-lactate+NAD+ to pyruvate+NADH following treatment with […] (Pesce et al., 1975). Lactate standards and samples were read at NADH specific absorbance 340 nm. For lactate measurement in Wnt5a time course, BMDCs were seeded in a 48-well plate at 1 million cell per well. BMDCs were treated with 100 ng/ml of recombinant Wnt5a from 0 to 48 hours. For extracellular lactate determination, 0.5 ml of supernatant media was collected directly from the culture, deproteinized by polyethylene glycol precipitation (25% w/v PEG-8000, sigma), and clarified by centrifugation at 20,000 g for 5 min. […] L-lactate was measured by lactate dehydrogenase (LDH, final 2 U/ml, Sigma) conversion of L-lactate+NAD+(β-Nicotinamide adenine dinucleotide, Sigma) to pyruvate+NADH in Glycine Buffer solution (final concentration Glycine 0.2M, Hydrazine 0.17M to destroy pyruvate allowing reaction to run to complete oxidation of lactate, Chloroform 0.0125%, Sigma). Reaction was incubated at 37° C. for 30 minute (without CO2), L-lactate standards and samples were read at NADH specific absorbance 340 nm (Infinite 200 PRO, Tecan).

Akt = Akt Thr-308 phosphorylation immunoblot of DCs; type: cell-based, Murine; conditions: Wnt5a 200 ng/mL, 48 hrs
From the text: (§1) Data is representative of 3 independent experiments. […] Data is representative of 3 independent experiments. […] Antibodies, Immunoprecipitation, and Immunoblot Analysis: Primary antibodies including CPT1A (Cell signaling), PPAR-γ (Santa Cruz Biotechnology), β-catenin, β-actin (Millipore), p-AMPK(T172)/AMPK (Cell signaling), p-AKT(T308)/Akt (Cell Signaling) were used at 1:1000. Secondary antibodies including goat anti-rabbit IgG-HRP (Millipore) and goat anti-mouse IgG-HRP (Millipore) were used at 1:5000. Cells were lysed in Laemmli sample buffer after treatment and subjected to SDS-polyacrylamide gel electrophoresis and immunoblot analysis. For immunoprecipitation, cells were lysed in radio immunoprecipitation assay (RIPA) buffer [10 mM sodium phosphate (pH 8.0), 150 mM NaCl, 1% Triton X-100, 1% sodium deoxycholate, and 0.1% SDS in the presence of 1 mM DTT, 1 mM phenylmethylsulfonylfluoride, and a protease inhibitor cocktail (Sigma)], precleared with protein A beads, and then incubated with 1 μg of antibody against β-catenin or isotype control IgG with protein A-agarose beads on a rotator overnight at 4° C. After 3 washes with RIPA buffer, immunoprecipitated complexes were eluted in sample buffer by boiling and subjected to immunoblot analysis. Immunoblots were visualized by chemiluminescence substrate (ThermoFisher) and imaged by a ChemiDoc XRSplus system (BioRad).

BMDCs = assay: Metabolomics LC-MS of TCA intermediates; type: cell-based, Murine; conditions: rWnt5a stimulation
Protocol: Metabolomics: Metabolites were extracted from 5×106 BMDCs and subjected to LC-MS analysis according to a previously published protocol (Liu et al., 2014a, Liu et al., 2014b). Metabolites were extracted from 5×106 BMDCs from each experimental group (3 mice per group), washed with ice cold PBS, and lysed in 80% (v/v) methanol on dry ice. Cell lysates were frozen at −80° C. for 15 minutes to disrupt cell membrane and quench enzymatic activity. Samples were then thawed on ice, vortexed rigorously to extract metabolites, and then centrifuged at 20,000 g at 4° C. to precipitate proteins and cell debris. Metabolite extracts were then dried using a speed vacuum and subjected to LC-MS analysis (Liu et al., 2014a, Liu et al., 2014b). Data collected from LC-Q exactive MS is processed on Sieve 2.0 (Thermo). For metabolite analysis, theoretical m/z and retention time of 263 known metabolites were used for positive mode, and 197 metabolites were used for negative mode. Data containing detected m/z and relative intensity of different samples were obtained.

DCs = assay: Oxygen consumption rate (OCR) / OXPHOS, Seahorse XFe24 flux analysis of murine DCs; type: cell-based; conditions: DCs pre-treated
Protocol: (§2) Dendritic Cell Conditioning: DCs were treated with Wnt3a (100 ng/mL), Wnt5a (200 ng/mL), LPS (1 μg/mL), 1-MT (1 mM), 2DG (1 mM), or ETO (100 μM), 2-DG(2-deoxy-d-glucose, 1 mM), Oligomycin (1 μM), succinylacetone (250 μM), or vehicle control either for 24 or 48 hrs prior to their use in both in vitro and in vivo experiments.
Cellular Energy Metabolism Analysis: DC energy metabolism was measured using the XFe24 extracellular flux analyzer (Seahorse Bioscience), with the glycolysis stress test kit and the mitochondrial stress test kit as previously described (Everts et al., 2014, Zhao and Klimecki, 2015). For experiments involving LPS injection, DCs were plated in XFe24 plates (200,000/well in 500p1) and treated with LPS for 48 hours prior to XF analysis. DCs were washed and analyzed in XF media (RPMI without sodium bicarbonate, 10 mM glucose, 1% FBS, 2 mM L-glutamine). ECAR was analyzed in real-time with or without LPS stimulation. For experiments involving BrafV600EPten−/− cell line-derived conditioned media (CM), collected CM was concentrated and desalted with an Amicon Ultra 30K filter according to manufacturer's recommendations (Milipore). Final concentrate was further washed with XF media 3 times, added to DCs immediately prior to OCR analysis. For standard ECAR analysis, XF media (without glucose) was used to wash cells prior to the assay. […]

CD4+FoxP3+ Treg cells = assay: In vitro Treg cell assay (conditioned DCs with naive CD4+ T cells); type: cell-based, mice; conditions: treated DCs co-cultured with naive CD4+ T cells
Protocol: as §2
Treg Cell Assays: For in vivo Treg cell assays, DCs (C57, H-2b) were pre-treated for 48 hours and delivered by intradermal injection into the footpad of Foxp3-mRFP mice. Draining inguinal and popliteal lymph nodes were resected 5 days later and analyzed for CD4+Foxp3+ Treg cells. For in vitro Treg cell assays, DCs (Balb/c, H-2d) were pre-treated for either 24 or 48 hrs, and re-plated at a 1:3 DC:T-cell ratio with purified allogeneic naive Foxp3-mRFP(H-2b) CD44loCD62LhiCD4+ Tcells. These co-cultures were incubated for 6 days and quantitated for CD4+FoxP3+ Treg cells by flow cytometry.

AMPK = assay: Thr-172 phospho-AMPK immunoblot analysis of DCs; type: cell-based, Murine; conditions: Wnt5a 200 ng/mL, 24 and 48 hrs
From the text: as §1

B1: Wnt5a: Recombinant Human/Mouse Wnt5a Protein (R&D Systems) (protein, UniProt P41221 62-380, looked up)
Protein Wnt-5a: IIGAQPLCSQLAGLSQGQKKLCHLYQDHMQYIGEGAKTGIKECQYQFRHRRWNCSTVDNTSVFGRVMQIGSRETAFTYAVSAAGVVNAMSRACREGELSTCGCSRAARPKDLPRDWLWGGCGDNIDYGYRFAKEFVDARERERIHAKGSYESARILMNLHNNEAGRRTVYNLADVACKCHGVSGSCSLKTCWLQLADFRKVGDALKEKYDSAAAMRLNSRGKLVQVNSRFNSPTTQDLVYIDPSPDYCVRNESTGSLGTQGRLCNKTSEGMDGCELMCCGRGYDQFKTVQTERCHCKFHWCCYVKCKKCTEIVDQFVCK
lactate production [1]: suppresses lactate production
DC Akt Thr-308 phosphorylation (Akt): no impact
TCA intermediate metabolites (BMDCs): increased quantities of many TCA intermediates but a decrease in α-ketoglutarate
OXPHOS in DCs (OCR) (DCs): effectively promoted OXPHOS in DCs
DC-mediated Treg cell differentiation in vitro (CD4+FoxP3+ Treg cells): enhanced Treg cell differentiation in vitro
AMPK activation (Thr-172 phospho-AMPK) (AMPK): suppressed AMPK activation
